{"source": "paper PMC2988976", "target": "Rev_(70-Dimer) (HIV) (UniProt P04618)", "assay": "SEC-MALS", "data": [{"substance": "Rev_(70-Dimer) (from UniProt P04618 1-70) (domain or fragment)", "values": [{"measurement": "stoichiometry N", "result": 2}]}]}
